Measured values from patent US20250115889A1 (DENTERIC, published 2025).
Where a chain is given by its changes, count along the chain named.

How the values were obtained:
[1] = molecular target: the molecule itself; assay: native PAGE of small scale purified protein, self-association (multimer ladder)
[2] = molecular target: the molecule itself; assay: column 'Multimer [yes/no]'; self-association
[3] = molecular target: the molecule itself; assay: Native PAGE without DTT; self-association (ability to form multimers)
[4] = molecular target: the molecule itself; assay: native PAGE with and without DTT, self-association (multimer ladder)
[5] = molecular target: the molecule itself; assay: native PAGE of small scale purified protein, self-association (multimers)
[6] = molecular target: the molecule itself; assay: native PAGE of small scale purified protein, self-association (multimer bands)

B1: KDAK1n (other)
chain: NTGVSFANYTAHGSETAWADPLLTTSQLKALTNKDKAEGSREVKRIGDGLFVTIEPANDVRANEAKVVLAADNVWGDNTGYQFLLDADHNTFGSVIPATGPLFTGTASSNLYSANFEYLIPANADPVVTTQNIIVTGQGEVVIPGGVYDYCITNPEPASGKMWIAGDGGNQPARYDDFTFEAGKKYTFTMRRAGMGDGTDMEVEDDSPASYTYTVYRDGTKIKEGLTATTFEEDGVAAGNHEYCVEVKYTAGVSPKVCKDVTVEGSNEFAPVQNLTGSSVGQKVTLKWDAPNGTPNPNPNPNPNPGTTLSESFENGIPASWKTIDADGDGHGWKPGNAPGIAGYNSNGCVYSESFGLGGIGVLTPDNYLITPALDLPNGG
B1: binds [1].

B2: KDAK1n-4S-AVQP (other)
chain: B1 chain with C151S, C244S, C258S, P271A, N274P, C349S
notes: also called KDAK1n mutant
B2: no binding [2].

B3: rABM21-SSEYQ (other)
chain: ASYTYTVYRDGTKIKEGLTATTFEEDGVAAGNHEYCVEVKYTAGVSPKVCKDVTVEGSSEYQPVQNLTGSSVGQKVTLKWDAPNGT
notes: also called SSEYQ variant
B3: binds [3].

B4: rABM21-Y > A/W > A (other)
chain: B3 chain with Y5A, S59N, Y61F, Q62A, W80A
B4: no binding [3].

B5: KDcAK1n-4S (other)
chain: NTGVSFANYTAHGSETAWADPLLTTSQLKALTNKDKWGDNTGYQFLLDADHNTFGSVIPATGPLFTGTASSNLYSANFEYLIPANADPVVTTQNIIVTGQGEVVIPGGVYDYSITNPEPASGKMWIAGDGGNQPARYDDFTFEAGKKYTFTMRRAGMGDGTDMEVEDDSPASYTYTVYRDGTKIKEGLTATTFEEDGVAAGNHEYSVEVKYTAGVSPKVSKDVTVEGSNEFAPVQNLTGSSVGQKVTLKWDAPNGTPNPNPNPNPNPGTTLSESFENGIPASWKTIDADGDGHGWKPGNAPGIAGYNSNGSVYSESFGLGGIGVLTPDNYLITPALDLPNGG
notes: also called chimera with all four Cysteine residues mutated to Serine
B5: binds [4].

B6: KDcAK1n (prior art chimera) (other)
chain: B5 chain with S113C, S206C, S220C, S311C
notes: also called original chimera
B6: binds [5].

B7: KDcAK1n-4S-AVQP (other)
chain: B5 chain with P233A, N236P
notes: also called KDcAKIn-4S-AVQP; KDcAK1n PVQN>AVQP/4 Cys>Ser variant
B7: no binding [4].

B8: DUF-ABM213 (other)
chain: AEGSREVKRIGDGLFVTIEPANDVRANEAKVVLAADNVWGDNTGYQFLLDADHNTFGSVIPATGPLFTGTASSNLYSANFEYLIPANADPVVTTQNIIVTGQGEVVIPGGVYDYCITNPEPASGKMWIAGDGGNQPARYDDFTFEAGKKYTFTMRRAGMGDGTDMEVEDDSPASYTYTVYRDGTKIKEGLTATTFEEDGVAAGNHEYCVEVKYTAGVSPKVCKDVTVEGSNEFAPVQNLTGSSVGQKVTLKWDAPNGTPNPNPNPNPNPGT
notes: also called DUF2436 domain plus ABMs
B8: binds [2].

B9: KDAK1nK (other)
chain: NTGVSFANYTAHGSETAWADPLLTTSQLKALTNKDKAEGSREVKRIGDGLFVTIEPANDVRANEAKVVLAADNVWGDNTGYQFLLDADHNTFGSVIPATGPLFTGTASSNLYSANFEYLIPANADPVVTTQNIIVTGQGEVVIPGGVYDYCITNPEPASGKMWIAGDGGNQPARYDDFTFEAGKKYTFTMRRAGMGDGTDMEVEDDSPASYTYTVYRDGTKIKEGLTATTFEEDGVAAGNHEYCVEVKYTAGVSPKVCKDVTVEGSNEFAPVQNLTGSSVGQKVTLKWDAPNGTPNPNPNPNPNPGTTLSESFENGIPASWKTIDADGDGHGWKPGNAPGIAGYNSNGCVYSESFGLGGIGVLTPDNYLITPALDLPNGGNTGVSFANYTAHGSETAWADPLLTTSQLKALTNKDK
B9: binds [1].

B10: DUF (other)
chain: AEGSREVKRIGDGLFVTIEPANDVRANEAKVVLAADNVWGDNTGYQFLLDADHNTFGSVIPATGPLFTGTASSNLYSANFEYLIPANADPVVTTQNIIVTGQGEVVIPGGVYDYCITNPEPASGKMWIAGDGGNQPARYDDFTFEAGKKYTFTMRRAGMGDGTDM
notes: also called DUF2436 domain; not shown: C-terminal His tag
B10: no binding [2].

B11: rABM213 (other)
chain: ASYTYTVYRDGTKIKEGLTATTFEEDGVAAGNHEYCVEVKYTAGVSPKVCKDVTVEGSNEFAPVQNLTGSSVGQKVTLKWDAPNGTPNPNPNPNPNPGT
notes: also called recombinant protein encoding ABM2(1), ABM1(2) and ABM3
B11: binds [3].

B12: rABM21-2XCys > Ser (other)
chain: ASYTYTVYRDGTKIKEGLTATTFEEDGVAAGNHEYSVEVKYTAGVSPKVSKDVTVEGSNEFAPVQNLTGSSVGQKVTLKWDAPN
B12: binds [4].

B13: rABM21--Y > A (other)
chain: B12 chain with Y5A, S36C, S50C
B13: binds [3].

B14: rABM21-AVQP-2X Cys > Ser (other)
chain: B12 chain with P63A, N66P
notes: also called ABM21-2S-AVQP
B14: no binding [4].

B15: rABM21 (other)
chain: B12 chain with S36C, S50C
notes: also called recombinant ABM21; recombinant protein encoding ABM2(1) and ABM1(2)
B15: binds [3].

B16: rABM21-AVQP (other)
chain: B12 chain with S36C, S50C, P63A, N66P
B16: binds [3].

B17: rABM21-AVQN (other)
chain: B12 chain with S36C, S50C, P63A
B17: binds [3].

B18: rABM21-AVQA (other)
chain: B12 chain with S36C, S50C, P63A, N66A
B18: binds [3].

B19: rABM21-AVQA-2X Cys > Ser (other)
chain: B12 chain with P63A, N66A
B19: binds [3].

B20: KDcAK1nK (other)
chain: NTGVSFANYTAHGSETAWADPLLTTSQLKALTNKDKWGDNTGYQFLLDADHNTFGSVIPATGPLFTGTASSNLYSANFEYLIPANADPVVTTQNIIVTGQGEVVIPGGVYDYCITNPEPASGKMWIAGDGGNQPARYDDFTFEAGKKYTFTMRRAGMGDGTDMEVEDDSPASYTYTVYRDGTKIKEGLTATTFEEDGVAAGNHEYCVEVKYTAGVSPKVCKDVTVEGSNEFAPVQNLTGSSVGQKVTLKWDAPNGTPNPNPNPNPNPGTTLSESFENGIPASWKTIDADGDGHGWKPGNAPGIAGYNSNGCVYSESFGLGGIGVLTPDNYLITPALDLPNGGNTGVSFANYTAHGSETAWADPLLTTSQLKALTNKDK
B20: binds [6].
